Measurements published in US20150307617A1 (Genentech, published 2015).
Substitutions are numbered along the chain they refer to. Where two headings read alike, the source gives them in different places.

T1: human OX40 expressed on the cell surface (Hut78-hOX40 cells; human T cells) (human, UniProt P43489 29-277)
T1 construct: Hut78 T cell line stably transfected or retrovirally transduced with human OX40, or native OX40 on human peripheral blood T cells; also called huOX40; Hut78-OX40
T1 sequence: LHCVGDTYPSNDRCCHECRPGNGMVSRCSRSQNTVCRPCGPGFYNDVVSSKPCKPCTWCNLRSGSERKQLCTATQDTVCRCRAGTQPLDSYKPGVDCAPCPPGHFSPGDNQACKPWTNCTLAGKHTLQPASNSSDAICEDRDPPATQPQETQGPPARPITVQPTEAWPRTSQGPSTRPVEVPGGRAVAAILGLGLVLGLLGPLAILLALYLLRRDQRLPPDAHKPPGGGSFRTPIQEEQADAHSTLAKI

T2: rat OX40 on T cells (rat, UniProt P15725 20-271)
T2 construct: whole, on cells
T2 sequence (looked up): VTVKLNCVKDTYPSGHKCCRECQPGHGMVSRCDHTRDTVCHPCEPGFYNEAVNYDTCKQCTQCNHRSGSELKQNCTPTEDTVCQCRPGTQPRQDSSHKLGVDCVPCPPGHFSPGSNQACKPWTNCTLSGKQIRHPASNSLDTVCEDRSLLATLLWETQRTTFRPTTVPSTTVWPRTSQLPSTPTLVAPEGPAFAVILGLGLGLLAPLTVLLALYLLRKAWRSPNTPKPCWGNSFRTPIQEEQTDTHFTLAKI

T3: mouse OX40 on T cells (mouse, UniProt P47741 20-272)
T3 construct: whole, on cells
T3 sequence (looked up): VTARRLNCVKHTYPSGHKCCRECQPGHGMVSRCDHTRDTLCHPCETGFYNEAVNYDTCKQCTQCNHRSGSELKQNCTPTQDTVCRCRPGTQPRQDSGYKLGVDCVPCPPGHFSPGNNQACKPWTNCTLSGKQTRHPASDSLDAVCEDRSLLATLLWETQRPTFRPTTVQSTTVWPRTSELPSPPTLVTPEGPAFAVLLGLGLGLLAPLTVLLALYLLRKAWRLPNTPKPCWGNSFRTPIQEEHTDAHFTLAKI

T4: Human OX40 (Sino Biological Inc) (human, UniProt P43489 29-216, limits assumed)
T4 construct: Bought soluble protein used as SPR analyte; also called huOX40
T4 sequence: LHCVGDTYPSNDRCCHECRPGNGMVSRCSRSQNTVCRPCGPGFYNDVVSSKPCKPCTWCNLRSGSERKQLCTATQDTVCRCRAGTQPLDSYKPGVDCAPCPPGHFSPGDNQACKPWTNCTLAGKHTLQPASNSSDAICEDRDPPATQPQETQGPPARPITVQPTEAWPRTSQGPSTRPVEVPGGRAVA

B1: Human OX40L-flag (ligand, UniProt P23510 51-183, looked up)
chain: QVSHRYPRIQSIKVQFTEYKKEKGFILTSQKEDEIMKVQNNSVIINCDGFYLISLKGYFSQEVNISLHYQKDEEPLFQLKKVRSVNSLMVASLTYKDKVYLNVTTDNTSLDDFHVNGGELILIHQNPGEFCVL
notes: Made at Genentech; not shown: flag tag
B2: 1A7.gr.1 (antibody, V domains shown)
VH: EVQLVQSGAEVKKPGASVKVSCKASGYTFTDSYMSWVRQAPGQGLEWIGDMYPDNGDSSYNQKFRERVTITRDTSTSTAYLELSSLRSEDTAVYYCVLAPRWYFSVWGQGTLVTVSS
VL: DIQMTQSPSSLSASVGDRVTITCRASQDISNYLNWYQQKPGKAPKLLIYYTSRLRSGVPSRFSGSGSGTDFTLTISSLQPEDFATYYCQQGHTLPPTFGQGTKVEIK
notes: human IgG1; 125I-labeled (radioligand assay) or Alexa Fluor 647-labeled (flow cytometry) in some assays; also called mab 1A7.gr.1; MOXR0916
B3: 1D2.gr.2 (antibody, V domains shown)
VH: EVQLVESGPGLVKPSETLSLTCTVSGFSLTDYGVLWIRQPPGKGLEWIGMIWSGGTTDYNAAFISRVTISKDTSKNQVSLKLSSVTAADTAVYYCVREEMDYWGQGTLVTVSS
VL: B2 VL with Y32F, R55H, H92N, P96W
notes: human Fc
B4: 1A7.gr.2 (antibody, V domains shown)
VH: B2 VH with R72V
VL: B2 VL
notes: human Fc (captured by anti-human Fc)
B5: 1A7.gr.NGSS (antibody, V domains shown)
VH: B2 VH with D57S
VL: B2 VL
B6: 1D2.gr.1 (antibody, V domains shown)
VH: B3 VH with K71V, V78F
VL: B2 VL with Y32F, R55H, H92N, P96W
notes: human Fc
B7: 1A7.gr.NADS (antibody, V domains shown)
VH: B2 VH with G56A
VL: B2 VL
B8: 1D2.gr.3 (antibody, V domains shown)
VH: B3 VH with I37V, I48L, V67L
VL: B2 VL with Y32F, R55H, H92N, P96W
notes: human Fc
B9: 1A7.gr.SGDS (antibody, V domains shown)
VH: B2 VH with N55S
VL: B2 VL
B10: 1A7.gr.DANADA (antibody, V domains shown)
VH: B2 VH with S32A, G56A, S58A
VL: B2 VL
B11: 1A7.gr.DA (antibody, V domains shown)
VH: B2 VH with S32A
VL: B2 VL
B12: 1A7.gr.NADA (antibody, V domains shown)
VH: B2 VH with G56A, S58A
VL: B2 VL
B13: 3C8.gr.10 (antibody, V domains shown)
VH: EVQLVQSGAEVKKPGASVKVSCKASGYAFTNYLIEWVRQAPGQGLEWIGVINPGSGDTYYSEKFKGRVTLTRDTSTSTAYLELSSLRSEDTAVYYCARDRLDYWGQGTLVTVSS
VL: DIQMTQSPSSLSASVGDRVTITCHASQDISSYIVWYQQKPGKAFKLLIYHGTNLEDGVPSRFSGSGSGTDFTLTISSLQPEDFATYYCVHYAQFPYTFGQGTKVEIK
notes: human Fc
B14: 3C8.gr.DA (antibody, V domains shown)
VH: B13 VH with T58A, R72A
VL: B13 VL with A43S, L46G
notes: also called 3C8.gr.5.DA
B15: 3C8.gr.11 (antibody, V domains shown)
VH: B13 VH
VL: B13 VL with F44P, L46G
notes: human Fc
B16: 3C8.gr.DQ (antibody, V domains shown)
VH: B13 VH with T58Q, R72A
VL: B13 VL with A43S, L46G
notes: also called 3C8.gr.5.DQ

Key:
[1] = target: T1, human OX40 expressed on the cell …; assay: flow cytometry competition on Hut78-hOX40 cells: OX40L-flag titrated first, then 200 ng/mL 1A7.gr.1-Alexa Fluor 647 added; readout is the MFI of 1A7.gr.1
Procedure: (§1) After 30 min of incubation at 4 C, cells were washed twice in Wash Buffer (PBS/0.5% FBS/2 mM EDTA), followed by data acquisition on FACSCantoII flow cytometer (BD). Data were then analyzed by Flowjo program (TreeStar) and the mean fluorescent intensity (MFI) was captured. […] A titration of OX40L-flag binding was carried out in a similar fashion, except that OX40L-flag was titrated 3 fold down starting from 10 ug/mL.
After 30 min of incubation at 4 C, cells were washed twice in Wash Buffer, followed by data acquisition on FACSCantoII flow cytometer (BD).

[2] = target: T1, human OX40 expressed on the cell …; assay: flow cytometry titration of OX40L-flag on Hut78-hOX40 cells, 3-fold dilutions from 10 ug/mL, detected with anti-flag-Alexa Fluor 555
Procedure: as §1

rat OX40 on T cells = target: T2, rat OX40 on T cells; assay: flow cytometry, Alexa Fluor 647-labeled antibody on peripheral blood T cells
mouse OX40 on T cells = target: T3, mouse OX40 on T cells; assay: as above
[3] = target: T5, cynomolgus monkey OX40 on T cells (cynomolgus monkey); assay: flow cytometry, Alexa Fluor 647-labeled antibody on cynomolgus monkey T cells, assay 2
T5 construct: whole, on cells; also called cynomolgus OX40
Procedure: (§2) Cells were blocked with 10% human, cynomolgus monkey, rat or mouse serum respectively in PBS for 15 minutes at 4° C. and plated in a 96 well plate at the equivalent of 100 μL of whole blood per reaction.

[4] = target: T5, cynomolgus monkey OX40 on T cells; assay: flow cytometry, Alexa Fluor 647-labeled antibody on cynomolgus monkey T cells, assay 1
Procedure: as §2

[5] = target: T5, cynomolgus monkey OX40 on T cells; assay: flow cytometry, Alexa Fluor 647-labeled antibody on cynomolgus monkey T cells, average in molar units
Procedure: as §2

[6] = target: T5, cynomolgus monkey OX40 on T cells; assay: flow cytometry, Alexa Fluor 647-labeled antibody on cynomolgus monkey T cells, average (± SD)
Procedure: as §2

[7] = target: T4, Human OX40 (Sino Biological Inc); assay: SPR (Biacore), antibody captured via anti-human Fc, huOX40 analyte
Procedure: (§3) The binding kinetics of the anti-OX40 antibodies was measured using surface plasmon resonance (SPR) on a Biacore 3000 instrument (GE Healthcare). Anti-human Fc (GE Healthcare) was immobilized on a CM5 sensor chip via amine-based coupling using manufacturer provided protocol. Anti-OX40 antibody was captured at a level of 300-400 resonance units (RU). Antibody binding was measured to human OX40 (Sino Biological Inc). Two-fold concentration series of huOX40 with a range of either 18.75 to 300 nM or 6.25 to 200 nM were used for the experiments. Sensorgrams for binding of OX40 were recorded using an injection time of 2 minutes with a flow rate of 30 μl/min, at a temperature of 25° C., and with a running buffer of 10 mM HEPES, pH 7.4, 150 mM NaCl, and 0.005% Tween 20. After injection, disassociation of the ligand from the antibody was monitored for 600 seconds in running buffer. The surface was regenerated between binding cycles with a 40 μl injection of 3 M Magnesium Chloride.

[8] = target: T4, Human OX40 (Sino Biological Inc); assay: as above; remark: listed apart in the source
Procedure: as §3
Variants were tested by Biacore as described above to evaluate binding kinetics and in co-stimulation assays to determine biological activity.

Binder	Kd [7] [nM]	koff [7] [s⁻¹]	kon [7] [M⁻¹ s⁻¹]	Kd [8] [nM]	koff [8] [s⁻¹]	kon [8] [M⁻¹ s⁻¹]	also measured
B1	–	–	–	–	–	–	IC50 (read off the curve) [1]: ~0.2 µg/mL; EC50 (read off the curve) [2]: ~0.2 µg/mL
B2	–	–	–	–	–	–	binding result (rat OX40 on T cells): no binding (tested: titrated from 9 µg/mL); binding result (mouse OX40 on T cells): no binding (tested: titrated from 9 µg/mL); EC50 [3]: 0.142 µg/mL; EC50 [4]: 0.143 µg/mL; EC50 [5]: 0.946 nM; EC50 [6]: 0.142 µg/mL
B3	55.9	0.0178	319000	–	–	–	–
B4	0.524	0.000233	444000	–	–	–	–
B5	–	–	–	0.311	0.000108	349000	–
B6	–	–	–	–	–	–	binding result [7]: binds
B7	–	–	–	0.442	0.000121	275000	–
B8	59.5	0.0163	273000	–	–	–	–
B9	–	–	–	0.993	0.000228	230000	fold loss of binding affinity (against 1A7.gr.1) [8]: 2 fold
B10	–	–	–	0.557	0.000215	387000	–
B11	–	–	–	0.259	8.32e-05	321000	–
B12	–	–	–	0.355	0.000108	304000	–
B13	2.84	0.00108	382000	–	–	–	–
B14	12.9	0.00502	388000	–	–	–	–
B15	2.86	0.000917	321000	–	–	–	–
B16	8.12	0.00309	381000	–	–	–	–
